Test results: paper doi:10.1101/2023.03.03.530962

Key:
[1] = target: PICK1 (protein interacting with C-kinase 1) (UniProt Q9EP80)
Sequence of UniProt Q9EP80 (Q9EP80 whole entry): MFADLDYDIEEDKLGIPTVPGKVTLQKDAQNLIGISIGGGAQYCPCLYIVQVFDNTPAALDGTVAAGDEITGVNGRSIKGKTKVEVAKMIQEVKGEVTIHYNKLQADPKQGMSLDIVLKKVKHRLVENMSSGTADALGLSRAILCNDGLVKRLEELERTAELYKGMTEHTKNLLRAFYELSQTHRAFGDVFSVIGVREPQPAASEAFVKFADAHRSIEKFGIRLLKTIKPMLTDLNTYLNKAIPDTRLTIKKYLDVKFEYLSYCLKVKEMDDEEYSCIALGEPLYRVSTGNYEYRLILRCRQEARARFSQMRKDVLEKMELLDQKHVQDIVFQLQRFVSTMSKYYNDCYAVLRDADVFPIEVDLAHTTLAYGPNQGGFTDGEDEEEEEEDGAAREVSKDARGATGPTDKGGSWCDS

For GCN4-HWLKV (peptide), the Ki [1] was 119 nM.

For GCN4-GS (peptide), the stoichiometry N (GCN4-GS (yeast)) was 2.

GCN4(7P14P)-HWLKV (peptide) was tested, and the Ki [1] was 548 nM.
